The results in this text go back to PMC8863222.

For the test, the target named is recombinant equine Keap1, GST-tagged, biotinylated (equine) (UniProt F6VZG9). Nature of the test: BLI; biotinylated Keap1 (65 μg/ml) loaded on streptavidin-coated biosensors; various concentrations of Rev or Nrf2 in PBST (PBS, 0.1 mg/ml BSA, 0.002% Tween 20, pH 7.2); room temperature; Octet Red.

In the case of “recombinant EIAV Rev, MBP-tagged (natural protein)”, the Kd – broadly, the free concentration of one partner at which half of the binding sites on the other are occupied at equilibrium, for simple one-to-one binding – amounted to 494 nM. As for “recombinant equine Nrf2, His-tagged (natural protein)”, the figure is 400 nM.
